This series addresses T1, NRSF/REST DBD (refolded by 2DR) (UniProt Q13127 159-412).
T1 sequence: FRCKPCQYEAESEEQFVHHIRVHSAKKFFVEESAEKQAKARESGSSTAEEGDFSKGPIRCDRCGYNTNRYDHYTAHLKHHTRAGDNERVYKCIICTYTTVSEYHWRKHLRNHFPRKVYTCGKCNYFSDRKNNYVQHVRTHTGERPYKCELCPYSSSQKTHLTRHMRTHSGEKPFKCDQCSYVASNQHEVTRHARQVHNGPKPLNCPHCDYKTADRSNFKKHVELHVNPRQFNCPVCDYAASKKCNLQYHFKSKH
As to the kind of experiment: EMSA; 0.1 mM ZnCl2; DBD:DNA 0:1 to 3:1, 75 pmol DNA in 20 ul; 10 mM Tris pH 7.0, 0.1 mM ZnCl2, 20 ul, 30 min at room temperature; 5% native PAGE, EtBr stain. The note with it: protein: recombinant; label: none (EtBr stain); blunt.

B1: NRSE/RE1 dsDNA (dsDNA)
DNA 1: TTCAGCACCACGGACAGCGCC
DNA 2: GGCGCTGTCCGTGGTGCTGAA
With B1, the binding result is recorded as “binds”.
